Experimental data as given in patent US5912120A, “Cloning, expression and diagnosis of human cytochrome P450 2C19: the principal determinant of s-mephenytoin metabolism” (The United States of America as represented by the …, priority 1994, dated 1999).

B1: 2C19 (11a): recombinant human cytochrome P450 2C19, clone 11a, amino acid sequence SEQ. ID. No. 1, expressed in yeast (protein)
chain: MDPFVVLVLCLSCLLLLSIWRQSSGRGKLPPGPTPLPVIGNILQIDIKDVSKSLTNLSKIYGPVFTLYFGLERMVVLHGYEVVKEALIDLGEEFSGRGHFPLAERANRGFGIVFSNGKRWKEIRRFSLMTLRNFGMGKRSIEDRVQEEARCLVEELRKTKASPCDPTFILGCAPCNVICSIIFQKRFDYKDQQFLNLMEKLNENIRIVSTPWIQICNNFPTIIDYFPGTHNKLLKNLAFMESDILEKVKEHQESMDINNPRDFIDCFLIKMEKEKQNQQSEFTIENLVITAADLLGAGTETTSTTLRYALLLLLKHPEVTAKVQEEIERVIGRNRSPCMQDRGHMPYTDAVVHEVQRYIDLIPTSLPHAVTCDVKFRNYLIPKGTTILTSLTSVLHDNKEFPNPEMFDPRHFLDEGGNFKKSNYFMPFSAGKRICVGEGLARMELFLFLTFILQNFNLKSLIDPKDLDTTPVVNGFASVPPFYQLCFIPV
B2: 2C8: recombinant human cytochrome P450 2C8 (clones 7b and 7c) expressed in yeast (protein)
chain: MEPFVVLVLCLSFMLLFSLWRQSCRRRKLPPGPTPLPIIGNMLQIDVKDICKSFTNFSKVYGPVFTVYFGMNPIVVFHGYEAVKEALIDNGEEFSGRGNSPISQRITKGLGIISSNGKRWKEIRRFSLTNLRNFGMGKRSIEDRVQEEAHCLVEELRKTKASPCDPTFILGCAPCNVICSVVFQKRFDYKDQNFLTLMKRFNENFRILNSPWIQVCNNFPLLIDCFPGTHNKVLKNVALTRSYIREKVKEHQASLDVNNPRDFMDCFLIKMEQEKDNQKSEFNIENLVGTVADLFVAGTETTSTTLRYGLLLLLKHPEVTAKVQEEIDHVIGRHRSPCMQDRSHMPYTDAVVHEIQRYSDLVPTGVPHAVTTDTKFRNYLIPKGTTIMALLTSVLHDDKEFPNPNIFDPGHFLDKNGNFKKSDYFMPFSAGKRICAGEGLARMELFLFLTTILQNFNLKSVDDLKNLNTTAVTKGIVSLPPSYQICFIPV
B3: 2C9-Ile^359 (65): recombinant human P450 2C9 allelic variant, clone 65, expressed in yeast (protein, UniProt P11712 1-490, looked up)
Cytochrome P450 2C9: MDSLVVLVLCLSCLLLLSLWRQSSGRGKLPPGPTPLPVIGNILQIGIKDISKSLTNLSKVYGPVFTLYFGLKPIVVLHGYEAVKEALIDLGEEFSGRGIFPLAERANRGFGIVFSNGKKWKEIRRFSLMTLRNFGMGKRSIEDRVQEEARCLVEELRKTKASPCDPTFILGCAPCNVICSIIFHKRFDYKDQQFLNLMEKLNENIKILSSPWIQICNNFSPIIDYFPGTHNKLLKNVAFMKSYILEKVKEHQESMDMNNPQDFIDCFLMKMEKEKHNQPSEFTIESLENTAVDLFGAGTETTSTTLRYALLLLLKHPEVTAKVQEEIERVIGRNRSPCMQDRSHMPYTDAVVHEVQRYIDLLPTSLPHAVTCDIKFRNYLIPKGTTILISLTSVLHDNKEFPNPEMFDPHHFLDEGGNFKKSKYFMPFSAGKRICVGEALAGMELFLFLTSILQNFNLKSLVDPKNLDTTPVVNGFASVPPFYQLCFIPV

Key:
[1] = target: cytochrome P450 2C9, allelic variant clone 25 (Leu359) (human)
[2] = target: cytochrome P450 2C9, allelic variant clone 65 (Ile359) (human)
[3] = Mephenytoin 4'-hydroxylase assay, recombinant human CYP2C yeast microsomes (Table III); type: biochemical; settings: for Mephenytoin 4'-Hydroxylase Activity S: recombinant yeast microsomes + P450 reductase, phospholipid, cytochrome b5 2:1, 0.4 mM substrate, HEPES pH 7.4, 37° C. 30 min, means ± SE; for R/S Ratio: with cytochrome b5
Procedure: (§1) Purified or recombinant yeast microsomes (10-50 pmol) were preincubated with dilauroylphosphatidylcholine (15 μg per 50 pmol P450), P450 reductase (500 U per 50 mol P450), and human cytochrome b5 (2:1 molar ratio when added). The reconstituted mixture was preincubated for 5 min at 37° C., and then placed on ice. A final concentration of 0.4 mM radiolabelled S- or R-mephenytoin (20.7 mCi/mM and 20.9 mCi/mMol) was added to 50 mM HEPES buffer (pH 7.4) containing 0.1 mM EDTA and 1.5 mM MgCl2 for recombinant 2C proteins. The mixture was then incubated at 37° with shaking for 3 min, and the reaction started with the addition of 2mM NADPH and terminated after 30 min with an equal volume of methanol. […] Reaction volumes were generally 0.25 ml except when the volume of recombinant purified cytochrome or yeast microsomes was greater than 50 μl. In these cases, the volume was increased to 0.5 ml to limit the volume of glycerol from the purified preparation to <4% of the final volume.

[4] = as above; type: biochemical; settings: recombinant yeast microsomes + P450 reductase, phospholipid, cytochrome b5 2:1; 0.4 mM substrate, HEPES pH 7.4, 37° C. 30 min; means ± SE
Procedure: as §1

[5] = Mephenytoin 4'-hydroxylase assay, purified recombinant P450 2C in reconstituted system (Table IV); type: biochemical; settings: for R/S Ratio / Mephenytoin 4'-Hydroxylase Activity S: purified P450, reconstituted system; for Mephenytoin 4'-Hydroxylase Activity S / Mephenytoin 4'-Hydroxylase Activity R: triplicate, means ± SE, blank not subtracted
Procedure: Recombinant yeast microsomes were prepared from a 10-12 l culture, and recombinant P450s were purified by aminooctylsepharose chromatography as described by Iwasaki et al., J. Biol. Chem. 226:3380-3382 (1991). The Emulgen was then removed from protein by adsorption of the protein to a 4 g hydroxylapatite column (Hypatite C, Clarkson Chemical Company, Williamsport, Pa.) equilibrated with 10 mM potassium phosphate buffer (pH 7.2), 20% glycerol, 0.1 mM EDTA, and 0.1 mM DTT and washing the column with the same buffer until the absorbance at 280 nm returned to zero. The P450 was then eluted with […], and dialyzed overnight against 100 mM potassium phosphate buffer (pH 7.4, 20% glycerol and 0.1 mM EDTA. Absolute and CO difference spectra of purified P450s were determined in the same buffer but containing 0.2% Emulgen and 0.5% cholate.
Mephenytoin 4'-hydroxylase activity was measured by a modification of the radiometric HPLC assay described by Shimada et al., J. Biol. Chem. 261:909-921 (1986), as described below. Purified or recombinant yeast microsomes (10-50 pmol) were preincubated with dilauroylphosphatidylcholine (15 μg per 50 pmol P450), P450 reductase (500 U per […] P450), and human cytochrome b5 (2:1 molar ratio when added). The reconstituted mixture was preincubated for 5 min at 37° C., and then placed on ice. A final concentration of 0.4 mM radiolabelled S- or R-mephenytoin (20.7 mCi/mM and 20.9 mCi/mMol) was added to 50 mM HEPES buffer (pH 7.4) containing 0.1 mM EDTA and 1.5 mM MgCl2 for recombinant 2C proteins. The mixture was then incubated at 37° with shaking for 3 min, and the reaction started with the addition of 2mM NADPH and terminated after 30 min with an equal volume of methanol. Cytochrome b5 was not included in all CYP2C18 reactions, since it had no effect or produced a slight inhibition on the activity of this CYP protein. Reaction volumes were generally 0.25 ml except when the volume of recombinant purified cytochrome or yeast microsomes was greater than 50 μl. In these cases, the volume was increased to 0.5 ml to limit the volume of glycerol from the purified preparation to <4% of the final volume.
At the end of the incubation period, the reactions were terminated with an equal volume of methanol. The incubation mixture was centrifuged at 10,000 g for 10 min and an aliquot assayed directly using HPLC without extraction. Samples with particularly low activity were concentrated by lyophilization and redissolved in a small volume of methanol:water (1:1) before assay. The HPLC system consisted of a reverse phase C18 (10 μm) Versapak, 300 mm×4.1 mm column (Altech Associates, Deerfield, Ill.) using an isocratic solvent consisting of methanol:water (45:55) with a flow rate was kept of 1 ml/min for 25 min. Detection of radioactive peaks was accomplished using an on-line Flow-One radiochemical detector (Radiomatic Instruments Co., Tampa, Fla. Detection of the unlabeled 4'-hydroxymephenytoin authentic standard was performed using an on-line multiwavelength UV detector at both 211 and 230 nm.
Recombinant P450s were purified from yeast microsomes and assays performe

[6] = Tolbutamide hydroxylase assay, recombinant human CYP2C yeast microsomes (Table V); type: biochemical; settings: for Tolbutamide Hydroxylase Activity (nmol/min/mg protein) / Tolbutamide Hydroxylase Activity (nmol/min/nmol P450): 1 mg yeast microsomal protein + purified P450 reductase (1,000 units); for Tolbutamide Hydroxylase Activity (nmol/min/mg protein): means ±SE
Procedure: Tolbutamide hydroxylase activity was measured according to Knodell et al., J. Pharmacol. Exper. […] Yeast microsomes (1 mg protein) were preincubated with 300 pmol hamster P450 reductase in 0.2 ml of the incubation buffer (below) for 3 min at 37° C. The reaction was then placed on ice and incubated in 0.2 ml of 50 mM HEPES buffer (pH 7.4) containing 1.5 mM MgCl2, 0.1 mM EDTA in a final volume of 1 ml and 1 mM sodium tolbutamide. The reaction was initiated with 0.5 mM NADPH. Human liver microsomes (0.22 mg protein) were incubated without reductase. Incubations with reconstituted recombinant P450s contained 50 pmol purified P450 enzyme, 150 pmol P450 reductase, and 15 μg dilauroylphosphatidyl-choline, and were performed in 100 mM potassium phosphate buffer (pH 7.4). Reactions were terminated after 60 min at 37° C. by the addition of 50 μl of 4N HCl, followed by extraction with 3 ml of water-saturated ethyl acetate. The ethyl acetate extracts were dried under nitrogen at 40° C., the residue resolubilized in 200 μl methanol, and 4-hydroxytolbutamide then assayed using HPLC by injecting 50 μl of the solubilized extract onto a μBONDAPAK C18 column (4.6×300 mm) using 0.05% phosphoric acid, pH 2.6: acetonitrile (6:4, v/v) as the mobile phase with a flow rate of 1 ml/min. The column eluate was monitored at 230 nm and rates of product formation were determined from standard curves prepared by adding varying amounts of 4-hydroxytolbutamide to incubations conducted without NADPH. […] Samples were analyzed in triplicate.

[7] = Tolbutamide hydroxylase assay, purified recombinant P450 2C (Table IV); type: biochemical; settings: purified P450, reconstituted; blank (22 ± 5) subtracted; means ± SE
Procedure: Tolbutamide hydroxylase activity was measured according to Knodell et al., J. Pharmacol. Exper. Ther. 241:1112-1119 (1987), with several modifications. Yeast microsomes (1 mg protein) were preincubated with 300 pmol hamster P450 reductase in 0.2 ml of the incubation buffer (below) for 3 min at 37° C. The reaction was then placed on ice and incubated in 0.2 ml of 50 mM HEPES buffer (pH 7.4) containing 1.5 mM MgCl2, 0.1 mM EDTA in a final volume of 1 ml and 1 mM sodium tolbutamide. The reaction was initiated with 0.5 mM NADPH. Human liver microsomes (0.22 mg protein) were incubated without reductase. Incubations with reconstituted recombinant P450s contained 50 pmol purified P450 enzyme, 150 pmol P450 reductase, and 15 μg dilauroylphosphatidyl-choline, and were performed in 100 mM potassium phosphate buffer (pH 7.4). Reactions were terminated after 60 min at 37° C. by the addition of 50 μl of 4N HCl, followed by extraction with 3 ml of water-saturated ethyl acetate. […] The column eluate was monitored at 230 nm and rates of product formation were determined from standard curves prepared by adding varying amounts of 4-hydroxytolbutamide to incubations conducted without NADPH. […] Samples were analyzed in triplicate.

| Molecule | metabolism of tolbutamide [1] [fold] | metabolism of tolbutamide [2] [fold] | rate of S-hydroxylation higher than that of R-hydroxylation ([3]; recombinant yeast microsomes) | stereospecificity of 4'-hydroxylation of mephenytoin ([3]; recombinant yeast microsomes (Table III)) | Mephenytoin 4'-Hydroxylase Activity S [3] [nmol/min/nmol P450] | Mephenytoin 4'-Hydroxylase Activity S ([3]; listed as 2C19) | R/S Ratio ([3]; recombinant yeast microsomes) | Mephenytoin 4'-Hydroxylase Activity R [4] [nmol/min/nmol P450] | R/S Ratio [5] | Mephenytoin 4'-Hydroxylase Activity S [5] [nmol/min/nmol P450] | S-mephenytoin 4'-hydroxylation turnover number higher than that of recombinant 2C9, 2C18 or 2C8 ([5]; purified, reconstituted system) | stereospecificity of 4'-hydroxylation of mephenytoin ([5]; purified, reconstituted system (Table IV)) | Mephenytoin 4'-Hydroxylase Activity R [5] [nmol/min/nmol P450] | S-mephenytoin 4'-hydroxylase turnover number higher than reported for P450MP purified from human liver ([5]; versus Srivastava et al. (1991)) | S-mephenytoin 4'-hydroxylation turnover number higher than that of human liver microsomes ([5]; versus human liver microsomes) | Tolbutamide Hydroxylase Activity (nmol/min/mg protein) [6] [nmol/min/mg protein] | tolbutamide hydroxylase activity compared with 2C9 ([6]; recombinant yeast microsomes, in words) | Tolbutamide Hydroxylase Activity [7] | Tolbutamide Hydroxylase Activity (nmol/min/nmol P450) ([6]; adjusted for P450 content) | turnover number for tolbutamide higher than the Leu^359 allele ([6]; recombinant microsomes, adjusted for P450 content) [fold] |
| --- | --- | --- | --- | --- | --- | --- | --- | --- | --- | --- | --- | --- | --- | --- | --- | --- | --- | --- | --- | --- |
| exogenous P450 reductase (enzyme) | > 10 | > 10 |  |  |  |  |  |  |  |  |  |  |  |  |  |  |  |  |  |  |
| B1 |  |  | at least 30 fold | stereospecific | 4.6 ± 0.3 | ~ 5 nmol/min/nmol P450 | 0.03 | 0.014 ± 0.02 | 0.03 | 6.17 ± 0.24 | 50-100 times | stereospecific for the S-enantiomer | 0.19 ± 0.04 | ~ 30 times | at least 10 times | 18.4 ± 2.4 | comparable to that of 2C9 |  |  |  |
| B2 |  |  |  |  | 0.037 ± 0.001 |  | 0.4 | 0.016 ± 0.001 | 0.4 | 0.057 ± 0.009 |  |  | 0.023 ± 0.004 |  |  | 8.5 ± 0.2 |  | 12 ± 4 pmol/min/nmol P450 | 0.11 ± 0.003 |  |
| B3 |  |  |  |  | 0.043 ± 0.000 |  | 0.9 | 0.041 ± 0.005 | 0.77 | 0.081 ± 0.006 |  |  | 0.063 ± 0.003 |  |  |  |  | 122 + 29 pmol/min/nmol P450 | 3.4 ± 0.15 | 3 |
